This passage reports fold reduction of binding against wild-type Spindlin1 and fold decrease of binding affinity in the presence of DOCpep(1-3) results from publication doi:10.1101/2021.03.07.432812.

One experiment concerns the target Y177A, W151A, and F141A. The experiment can be described thus: ITC. Background: In ITC the heat of successive injections is recorded.
Experiment [1] has as its target Spindlin1_(50-262) bound to DOCpep(1-3) (UniProt Q9Y657). The experiment is described as follows: ITC.

On to “DOCpep2, SPIN•DOC 228-239 peptide (from UniProt Q9BUA3 228-239)”, for which the fold reduction of binding against wild-type Spindlin1 in the experiment with Y177A, W151A, and F141A is 1.5 to 3 fold.
With “histone H3 1-20 K4me3 peptide (from UniProt P68431 2-21)”, the fold decrease of binding affinity in the presence of DOCpep(1-3) in experiment [1] amounted to 18 fold.
